Results published in patent US20190144558A1.

Molecular target: purified human CD117 ectodomain (R&D Systems #332-SR) (human) (UniProt P10721)
Assay: BLI (Octet Red96), IgG on anti-human Fc sensors, human CD117 ectodomain at 33.3 and 11 nM, 1:1 fit

Kd: 24.9 nM
koff: 0.00533 s⁻¹
kon: 214000 M⁻¹ s⁻¹
B1: Antibody 61 (antibody, human IgG1, kappa, V domains shown)
VH: EVQLLESGGGLVQPGGSLRLSCAASGFTFSSYVMIWVRQAPGKGLEWVSSISGDSVTTYYADSVKGRFTISRDNSKNTLYLQMNSLRAEDTAVYYCAKGPPTYHTNYYYMDVWGKGTTVTVSS
VL: DIQMTQSPSSVSASVGDRVTITCRASQGISSWLAWYQQKPGKAPKLLIYAASSLQSGVPSRFSGSGSGTDFTLTISSLQPEDFATYYCQQTNSFPYTFGGGTKVEIKR
